The target in the assay is ribosome nascent chain complex RNC_(1A9L) labeled with Cm on the nascent chain (1A9L 56 amb). In words: FRET or BRET.

As usually defined, the Kd is a measure of binding affinity in units of concentration. Take “BODIPY-Fl labeled Signal Recognition Particle (SRP; protein component Ffh) (from UniProt P0AGD7 1-453) (complex)”: the Kd amounted to 0.73 nM.

Values taken from article PMC3189723.
